Assay results published in publication PMC9481740 (The Journal of Cell Biology, 2022).
Numbering of substitutions follows the chain as printed.

B1: GST-LIC2 (natural protein, human, UniProt O43237 1-492, looked up)
chain: MAPVGVEKKLLLGPNGPAVAAAGDLTSEEEEGQSLWSSILSEVSTRARSKLPSGKNILVFGEDGSGKTTLMTKLQGAEHGKKGRGLEYLYLSVHDEDRDDHTRCNVWILDGDLYHKGLLKFAVSAESLPETLVIFVADMSRPWTVMESLQKWASVLREHIDKMKIPPEKMRELERKFVKDFQDYMEPEEGCQGSPQRRGPLTSGSDEENVALPLGDNVLTHNLGIPVLVVCTKCDAVSVLEKEHDYRDEHLDFIQSHLRRFCLQYGAALIYTSVKEEKNLDLLYKYIVHKTYGFHFTTPALVVEKDAVFIPAGWDNEKKIAILHENFTTVKPEDAYEDFIVKPPVRKLVHDKELAAEDEQVFLMKQQSLLAKQPATPTRASESPARGPSGSPRTQGRGGPASVPSSSPGTSVKKPDPNIKNNAASEGVLASFFNSLLSKKTGSPGSPGAGGVQSTAKKSGQKTVLSNVQEELDRMTRKPDSMVTNSSTENEA
notes: Dynein light intermediate chain 2 (LIC2), human; GST is TEV-cleavable but was used as the handle on glutathione beads; also called GST-tagged LIC2; source: TnAO38 insect cells (baculovirus), purified (GSTrap, Superdex 200); not shown: GST, N-terminal, kept
B2: pre-farnesylated ^mChSpindly^CC2* (natural protein, human, UniProt Q96EA4 1-605, looked up)
chain: MEADIITNLRCRLKEAEEERLKAAQYGLQLVESQNELQNQLDKCRNEMMTMTESYEQEKYTLQREVELKSRMLESLSCECEAIKQQQKMHLEKLEEQLSRSHGQEVNELKTKIEKLKVELDEARLSEKQLKHQVDHQKELLSCKSEELRVMSERVQESMSSEMLALQIELTEMESMKTTLKEEVNELQYRQEQLELLITNLMRQVDRLKEEKEEREKEAVSYYNALEKARVANQDLQVQLDQALQQALDPNSKGNSLFAEVEDRRAAMERQLISMKVKYQSLKKQNVFNREQMQEMELQIATLLQMKGSQTEFEQQERLLAMLEQKNGEIKHLLGEIRNLEKFKNLYDSMESKPSVDSGTLEDNTYYTDLLQMKLDNLNKEIESTKGELSIQRMKALFESQRALDIERKLFANERCLQLSESENMKLRAKLDELKLKYEPEETVEVPVLKKRREVLPVDITTAKDACVNNSALGGEVYRLPPQKEETQSCPNSLEDNNLQLEKSVSIYTPVVSLSPHKNLPVDMQLKKEKKCVKLIGVPADAEALSERSGNTPNSPRLAAESKLQTEVKEGKETSSKLEKETCKKLHPILYVSSKSTPETQCPQQ
modifications: farnesylated (residue not given)
notes: source: E. coli BL21 CodonPlus, purified; farnesylated in vitro with farnesyltransferase; not shown: mCherry, N-terminal, kept

Legend:
Conditions in all cases: both partners purified
[1] = target: T1, mCherry-tagged full-length Spindly (^mChSpindly^FL) (human, UniProt Q96EA4 1-605); assay: pull-down; GST or GST-LIC2 bait 4 µM on glutathione beads, mCh-Spindly preys 8 µM, 4°C 1 h, Spindly buffer; eluted with glutathione; mCherry fluorescence of the gel band quantified against Spindly FL
T1 construct: also called ^mChSpindly^WT; Spindly^WT; source: E. coli BL21 CodonPlus, purified (HisTrap, Resource Q, Superdex 200); not shown: mCherry, N-terminal, kept
T1 sequence (looked up): B2 chain with E295R, E297K

[2] = target: T2, ^mChSpindly^CC2* (R295E-K297E) (human, UniProt Q96EA4 1-605, R295E | K297E); assay: as above
T2 construct: source: E. coli BL21 CodonPlus, purified (HisTrap, Resource Q, Superdex 200); not shown: mCherry, N-terminal, kept
T2 sequence (looked up): B2 chain

^mChSpindly^ΔRV = target: T3, ^mChSpindly^ΔRV (human, UniProt Q96EA4 1-605, ΔRV (residues R154–V155)); assay: as above
T3 construct: also called ^mChSpindly^∆RV; source: E. coli BL21 CodonPlus, purified (HisTrap, Resource Q, Superdex 200); not shown: mCherry, N-terminal, kept
T3 sequence (looked up): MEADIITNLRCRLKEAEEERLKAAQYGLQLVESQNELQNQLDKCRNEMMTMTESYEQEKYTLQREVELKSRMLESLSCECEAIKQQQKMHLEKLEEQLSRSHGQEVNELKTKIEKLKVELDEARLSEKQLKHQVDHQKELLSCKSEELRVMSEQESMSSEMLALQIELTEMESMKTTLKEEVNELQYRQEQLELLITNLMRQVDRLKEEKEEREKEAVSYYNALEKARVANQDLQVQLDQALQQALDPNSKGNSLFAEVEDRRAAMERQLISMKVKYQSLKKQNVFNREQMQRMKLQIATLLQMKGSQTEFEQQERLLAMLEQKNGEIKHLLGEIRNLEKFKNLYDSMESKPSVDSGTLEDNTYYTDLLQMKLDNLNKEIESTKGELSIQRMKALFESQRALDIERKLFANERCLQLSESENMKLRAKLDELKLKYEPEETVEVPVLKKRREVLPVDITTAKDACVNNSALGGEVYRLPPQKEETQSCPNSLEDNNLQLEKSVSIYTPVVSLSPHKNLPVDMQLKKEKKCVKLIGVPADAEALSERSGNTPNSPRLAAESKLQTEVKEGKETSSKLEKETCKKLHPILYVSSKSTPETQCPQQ

[3] = target: T4, ROD–Zwilch–ZW10 (RZZ) complex (UniProt P50748 1-2209; Q9H900 1-591; O43264 1-779); assay: SEC; Superose 6 5/150; RZZ 2 µM, pre-farnesylated mCh-Spindly construct 6 µM
T4 construct: ROD; Zwilch; ZW10; also called mCherry-RZZ; copies: + +
T4 sequence (P50748 whole entry, chain 1 of 3): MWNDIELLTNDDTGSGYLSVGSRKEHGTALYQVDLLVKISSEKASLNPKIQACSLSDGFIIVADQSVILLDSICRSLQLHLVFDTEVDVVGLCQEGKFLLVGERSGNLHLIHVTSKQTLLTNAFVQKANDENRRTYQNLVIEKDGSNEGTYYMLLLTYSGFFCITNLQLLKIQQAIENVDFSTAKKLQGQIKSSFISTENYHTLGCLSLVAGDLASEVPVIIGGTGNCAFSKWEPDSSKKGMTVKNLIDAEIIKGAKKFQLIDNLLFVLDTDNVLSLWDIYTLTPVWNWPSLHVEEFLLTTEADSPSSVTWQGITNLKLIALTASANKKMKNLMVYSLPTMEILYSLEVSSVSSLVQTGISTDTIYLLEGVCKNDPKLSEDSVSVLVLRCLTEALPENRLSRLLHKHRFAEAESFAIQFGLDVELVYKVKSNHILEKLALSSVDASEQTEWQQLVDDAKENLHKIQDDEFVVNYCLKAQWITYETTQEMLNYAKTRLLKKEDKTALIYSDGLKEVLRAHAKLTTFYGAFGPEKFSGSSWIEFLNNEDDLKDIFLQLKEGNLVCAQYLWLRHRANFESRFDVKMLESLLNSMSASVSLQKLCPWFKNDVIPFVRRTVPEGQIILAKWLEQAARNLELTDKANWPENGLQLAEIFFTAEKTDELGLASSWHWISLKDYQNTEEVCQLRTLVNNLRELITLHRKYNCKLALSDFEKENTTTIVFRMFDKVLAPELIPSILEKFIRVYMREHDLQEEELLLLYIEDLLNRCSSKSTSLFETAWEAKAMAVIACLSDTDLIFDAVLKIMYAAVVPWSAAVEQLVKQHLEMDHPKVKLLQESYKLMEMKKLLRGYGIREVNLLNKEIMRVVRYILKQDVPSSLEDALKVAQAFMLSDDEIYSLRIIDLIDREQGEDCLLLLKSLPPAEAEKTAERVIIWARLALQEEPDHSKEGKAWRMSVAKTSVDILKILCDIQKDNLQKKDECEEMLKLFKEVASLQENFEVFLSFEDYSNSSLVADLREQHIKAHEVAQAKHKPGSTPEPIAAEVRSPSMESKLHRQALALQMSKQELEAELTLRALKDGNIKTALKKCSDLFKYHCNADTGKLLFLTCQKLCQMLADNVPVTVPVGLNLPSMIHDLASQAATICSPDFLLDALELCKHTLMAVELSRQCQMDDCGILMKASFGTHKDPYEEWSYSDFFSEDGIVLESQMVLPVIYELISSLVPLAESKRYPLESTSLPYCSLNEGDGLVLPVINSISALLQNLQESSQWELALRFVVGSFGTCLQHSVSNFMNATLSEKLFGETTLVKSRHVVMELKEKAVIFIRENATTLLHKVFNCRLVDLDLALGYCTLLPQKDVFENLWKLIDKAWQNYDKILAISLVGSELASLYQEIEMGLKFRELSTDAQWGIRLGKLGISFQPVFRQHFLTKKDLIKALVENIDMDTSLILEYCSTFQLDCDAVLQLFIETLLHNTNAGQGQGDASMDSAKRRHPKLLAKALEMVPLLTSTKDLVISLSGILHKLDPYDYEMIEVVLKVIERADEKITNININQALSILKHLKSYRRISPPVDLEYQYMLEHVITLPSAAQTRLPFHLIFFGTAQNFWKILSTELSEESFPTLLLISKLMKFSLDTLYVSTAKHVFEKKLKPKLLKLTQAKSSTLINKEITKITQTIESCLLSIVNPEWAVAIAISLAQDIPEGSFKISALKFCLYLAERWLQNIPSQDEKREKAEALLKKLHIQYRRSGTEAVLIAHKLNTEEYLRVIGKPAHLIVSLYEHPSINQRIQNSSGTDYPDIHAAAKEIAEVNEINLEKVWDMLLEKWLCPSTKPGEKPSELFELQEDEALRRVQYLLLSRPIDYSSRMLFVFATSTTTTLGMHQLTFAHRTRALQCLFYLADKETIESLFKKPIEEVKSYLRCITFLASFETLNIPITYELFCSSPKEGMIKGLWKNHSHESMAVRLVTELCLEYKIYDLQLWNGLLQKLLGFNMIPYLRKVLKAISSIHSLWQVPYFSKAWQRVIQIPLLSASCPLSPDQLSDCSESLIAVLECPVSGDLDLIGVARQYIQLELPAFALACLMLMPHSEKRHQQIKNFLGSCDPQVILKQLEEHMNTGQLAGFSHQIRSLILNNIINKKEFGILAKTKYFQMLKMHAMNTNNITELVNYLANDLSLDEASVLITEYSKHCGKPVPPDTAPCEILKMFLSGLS
T4 sequence (Q9H900 whole entry, chain 2 of 3): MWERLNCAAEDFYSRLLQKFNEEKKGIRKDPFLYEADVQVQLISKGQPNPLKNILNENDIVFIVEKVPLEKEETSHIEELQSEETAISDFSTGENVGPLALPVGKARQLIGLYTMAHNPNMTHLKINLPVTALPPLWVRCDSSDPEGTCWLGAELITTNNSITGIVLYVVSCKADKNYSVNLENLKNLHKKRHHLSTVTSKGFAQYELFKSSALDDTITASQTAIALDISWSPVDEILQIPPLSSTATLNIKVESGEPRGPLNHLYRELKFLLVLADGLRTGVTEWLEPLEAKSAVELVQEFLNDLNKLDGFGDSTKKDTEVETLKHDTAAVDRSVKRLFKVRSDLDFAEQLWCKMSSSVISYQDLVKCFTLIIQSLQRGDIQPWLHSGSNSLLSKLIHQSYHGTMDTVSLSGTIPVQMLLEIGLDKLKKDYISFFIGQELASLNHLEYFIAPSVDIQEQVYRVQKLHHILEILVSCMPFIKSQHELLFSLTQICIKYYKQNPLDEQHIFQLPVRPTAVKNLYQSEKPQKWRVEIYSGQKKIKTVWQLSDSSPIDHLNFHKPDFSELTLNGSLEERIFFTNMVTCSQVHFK
T4 sequence (O43264 whole entry, chain 3 of 3): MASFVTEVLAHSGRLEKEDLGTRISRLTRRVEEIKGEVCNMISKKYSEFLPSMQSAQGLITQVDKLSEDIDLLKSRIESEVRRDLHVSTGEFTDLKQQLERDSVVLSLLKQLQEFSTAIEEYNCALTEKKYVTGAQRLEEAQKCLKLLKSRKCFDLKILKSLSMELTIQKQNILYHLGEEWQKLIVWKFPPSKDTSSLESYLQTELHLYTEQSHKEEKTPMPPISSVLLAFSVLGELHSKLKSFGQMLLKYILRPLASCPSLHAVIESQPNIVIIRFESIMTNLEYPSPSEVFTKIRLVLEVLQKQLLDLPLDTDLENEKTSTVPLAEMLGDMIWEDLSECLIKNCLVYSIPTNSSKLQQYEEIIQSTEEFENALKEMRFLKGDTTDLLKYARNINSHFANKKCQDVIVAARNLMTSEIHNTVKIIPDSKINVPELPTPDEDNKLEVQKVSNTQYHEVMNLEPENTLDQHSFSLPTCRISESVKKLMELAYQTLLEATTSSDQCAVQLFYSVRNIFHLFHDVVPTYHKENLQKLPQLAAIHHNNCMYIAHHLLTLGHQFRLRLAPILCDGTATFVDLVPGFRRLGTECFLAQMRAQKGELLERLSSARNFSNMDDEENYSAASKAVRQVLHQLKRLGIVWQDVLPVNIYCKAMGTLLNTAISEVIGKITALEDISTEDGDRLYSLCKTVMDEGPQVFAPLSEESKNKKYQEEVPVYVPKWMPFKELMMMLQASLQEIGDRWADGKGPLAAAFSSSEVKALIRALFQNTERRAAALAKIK

Binder | binding result [1] | binding result [2] | binding result (^mChSpindly^ΔRV) | binding result [3]
B1 | binds | binds | binds | 
B2 |  |  |  | binds
